In patent US20200308267A1 (Boehringer Ingelheim, published 2020):

Target: T1, recombinant human VEGF165 (human, UniProt P15692-4 27-191, biotinylated (Sulfo-NHS-LC-Biotin) in the competition assays)
T1 construct: also called hVEGF165; rhVEGF165
Experiment: Biacore, periplasmic extract, VEGF165 chip, two phase decay fit
Design: unit not given here
Method: Dissociation rates of inhibitory VHHs are analyzed on Biacore (Biacore T100 instrument, GE Healthcare). HBS-EP+ buffer is used as running buffer and experiments are performed at 25° C. […] After immobilization, surfaces are deactivated with 10 min injection of 1 M ethanolamine pH8.5. A reference surface is activated and deactivated with respectively EDC/NHS and ethanolamine. Periplasmic extracts of VHHs are injected at a 10-fold dilution in running buffer for 2 min at 45 μl/min and allowed to dissociate for 10 or 15 min. Between different samples, the surfaces are regenerated with regeneration buffer. Data are double referenced by subtraction of the curves on the reference channel and of a blank running buffer injection. […] is evaluated by fitting a two phase decay model in the Biacore T100 Evaluation software v2.0.1.

T1 sequence (P15692 other isoform, or with tags, fused parts or gaps limits assumed): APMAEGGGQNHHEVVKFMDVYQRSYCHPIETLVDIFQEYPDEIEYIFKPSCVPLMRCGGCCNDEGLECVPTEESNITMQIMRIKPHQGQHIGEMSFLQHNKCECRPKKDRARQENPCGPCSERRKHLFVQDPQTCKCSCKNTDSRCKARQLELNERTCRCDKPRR

Binder | kd(fast) | kd(slow)
VEGFBII23A03 (VHH, not shown: small tags and cut ends) VHH: EVQLVESGGGLVQPGDSLKLSCVASGRTFSSYSMGWFRQAQGKEREFVVAISSGGYIYDSVSLQGRFTISRDNTKNTVYLQTPSLKPEDTAVYYCAASRAYGSSRLRLADTYDYWGQGTQVTVSS | 0.015 | 3.2e-05
VEGFBII23A08 (VHH, not shown: small tags and cut ends) VHH: EVQLVESGGGLVQTGDSLRLSCVASGRTFSSYSMGWFRQAQGKEREFVVAISNGGYKYDSVSLEGRFTISRDNTKNTVYLQINSLKPEDTAVYYCAASRAYGSSRLRLADTYDYWGQGTQVTVSS | 0.013 | 5e-05
VEGFBII30C09 (VHH, not shown: small tags and cut ends) VHH: EVQLVESGGGLVQPGDSLKLSCIASGRTSSSYSMGWFRQAQGQEREFVVAISSGGYIYDSVSLQGRFTISRDNTKNTVYLQTPSLKPEDTAVYYCAASRAYGSSRLRLADTYDYWGQGTQVTVSS | 0.015 | 7.6e-05
VEGFBII61A01 (VHH, not shown: small tags and cut ends) VHH: EVQLVESGGGLVQAGGSLRLSCAFSGRTFSSYSMGWFRQAQGKEREFVVAISSGGYKYDAVSLEGRFTISRDNTKNTVYLQTPSLKPEDTAVYYCAASRAYASSRLRLADTYDYWGQGTQVTVSS | 0.0074 | 0.00017
VEGFBII23E05 (VHH, not shown: small tags and cut ends) VHH: EVQLVESEGGLVQPGDSLKLSCVASGRTSSSYSMGWFRQAQGKEREFVVAISSGGYIYDSVSLQGRFTISRDNTKNTVYLQTPSLKPEDTAVYYCAASRAYGSSRLRLADTYDYWGQGTQVTVSS | 0.015 | 6.9e-05
VEGFBII23D11 (VHH, not shown: small tags and cut ends) VHH: EVQLVESGGGLVQPGDSLRLSCAFSGRTFSSYSMAWFRQAQGKEREFVVAISSGGFIYDAVSLEGRFTISRDNTKNTVYLQTPSLKPEDTAVYYCAASRAYGSSRLRLADTYDYWGQGTQVTVSS | 0.019 | 5.8e-05
VEGFBII22A11 (VHH, not shown: small tags and cut ends) VHH: EVQLVESGGGLVQPGDSLKLSCAFSGRTFSSYSMAWFRQAQGKEREFVVAISSGGFIYDAVSLEGRFTISRDNTKNTVYLQTPSLKPEDTAVYYCAASRAYGSSRLRLADTYDYWGQGTQVTVSS | 0.022 | 4.7e-05
VEGFBII27G07 (VHH, not shown: small tags and cut ends) VHH: EVQLVESGGGLVQPGDSLKLSCVASGRTSSSYSMGWFRQAQGQEREFVVAISSGGYIYDSVSLQGRFTISRDNTKNTVYLQTPSLKPEDTAVYYCAASRAYGSSRLRLADTYDYWGQGTQVTVSS | 0.013 | 3.8e-05
VEGFBII27D08 (VHH, not shown: small tags and cut ends) VHH: EVQLVESGGGLVQTGDSLRLSCAASGRTFSSYSMGWFRQAQGKEREFVVAISSGGYKYDSVSLEGRFTISRDNTQNTVYLQINSLKPEDTAVYYCAASRAYGSGRLRLADTYDYWGQGTQVTVSS | 0.024 | 8.1e-05
VEGFBII40F02 (VHH, not shown: small tags and cut ends) VHH: EVQLVESGGGLVQPGDSLKLSCAFSGRTFSSYSMAWFRQAQGKEREFVVAISSGGFIYDAVSLEGRFTISRDNTKNTVYLQTPSLKPEGTAVYYCAASRAYGSSRLRLADTYDYWGQGTQVTVSS | 0.012 | 9.8e-05
VEGFBII42F11 (VHH, not shown: small tags and cut ends) VHH: EVQLVESGGGLVQPGDSLKLSCVASGRTSSSYSVGWFRQAQGKEREFVVAISSGGYIYDSVSLQGRFTISRDNTKNTVYLQTPSLKPEDTAVYYCAASRAYGSSRLRLADTYDYWGQGTQVTVSS | 0.0091 | 0.0005
VEGFBII22E04 (VHH, not shown: small tags and cut ends) VHH: EVQLVESGGGLVQPGDSLKLSCVASGRTSSSYSMGWFRQAQGKEREFVVAISSGGSIYDSVSLQGRFTISRDNTKNTVYLQTPSLKPEDTAVYYCAASRAYASSRLRLADTYDYWGQGTQVTVSS | 0.018 | 0.00011
VEGFBII62F02 (VHH, not shown: small tags and cut ends) VHH: EVQLVESGGGLVQPGDSLKLSCAFSGRTFSSYSMGWFRQAQGKEREFVVAIASGGYIYDAVSLEGRFTISRDNTKDTVYLQTPSLKPEDTAVYYCAASRAYGSSRLRLADTYDYWGQGTQVTVSS | 0.014 | 8.5e-05
VEGFBII41G03 (VHH, not shown: small tags and cut ends) VHH: EVQLVESGGGLVQPGDSLKLSCAFSGRTFSSYSMAWFRQAQGKEREFVVAISSGGFIYDAVSLEGRFTISRENTKNTVYLQTPSLKPEDTAVYYCAASRAYGSSRLRLADTYDYWGQGTQVTVSS | 0.012 | 0.00027
VEGFBII41B05 (VHH, not shown: small tags and cut ends) VHH: EVQLVESGGGLVQPGGSLRLSCAFSGRTFSSYSMGWFRQAQGKEREFVVAISSGGFIYDAVSLEGRFTISRDNTKNTVYLQTPSLKPEDTAVYYCAASRAYGSSRLRLADTYDYWGQGTQVTVSS | 0.019 | 0.00012
VEGFBII42D05 (VHH, not shown: small tags and cut ends) VHH: EVQLVESGGGLVQPGDSLKLSCAFSGRTFSSYSMGWFRQAQGKEREFVVAISSSGGYIYDSVSLEGRFTISRDNTKNTVYLQTPSLKPEDTAVYYCAASRAYGSSRLRLADTYDYWGQGTQVTVSS | 0.033 | 0.00015
VEGFBII22A10 (VHH, not shown: small tags and cut ends) VHH: EVQLVESGGGLVQPGDSLKLSCAFSGRTFSSYSMGWFRQAQGKEREFVVAISSSGGYIYDSVSLEGRFTISRDNTKNTVYLQTPSLKPEDTADYYCAASRAYGSSRLRLADTYDYWGQGTQVTVSS | 0.037 | 4e-05
VEGFBII40G07 (VHH, not shown: small tags and cut ends) VHH: EVQLVESGGGLVQPGDSLKLSCAFSGRTFSSYSMGWFRQAQGKEREFVVAISSSGGYIYDSVSLEGRFTISRDNTKNAVYLQTPSLKPEDTADYYCAASRAYGSSRLRLADTYDYWGQGTQVTVSS | 0.018 | 0.00032
VEGFBII40H10 (VHH, not shown: small tags and cut ends) VHH: EVQLMESGGGLVQPGDSLKLSCAFSGRTFSSYSMGWFRQAQGKEREFVVAISSSGGYIYDSVSLEGRFTISRDNTKNTVYLQTPSLKPEDTADYYCAASRAYGSSRLRLADTYDYWGQGTQVTVSS | 0.014 | 0.00029
VEGFBII23G03 (VHH, not shown: small tags and cut ends) VHH: EVQLVESGGGLVQPGDSLKLSCAFSGRTFGSYSMGWFRQAQGKEREFVVAISSSGGYIYDSVSLEGRFTISRDNSKNTVYLQTPSLKPEDTAVYYCAASRAYGSSRLRLPGTYDYWGQGTQVTVSS | 0.028 | 8.6e-05
VEGFBII39E02 (VHH, not shown: small tags and cut ends) VHH: EVQLVESGGGLVQPGDPLKLSCAFSGRTFSSYSMGWFRQAQGKEREFVVAISSSGGYIYDSVSLEGRFTISRDNTKNTVYLQTPSLKPEDTADYYCAASRAYGSSRLRLADTYDYWGQGTQVTVSS | 0.019 | 0.00024
VEGFBII39G04 (VHH, not shown: small tags and cut ends) VHH: EVPLVESGGGLVQAGDSLRLSCAASGRTFSSYSMGWFRQAQGKEREFVVAISSSGNYKYDSASLEGRFTISRDNTKNTVYLQINSLKPEDTAVYYCAASRAYGSSRLRLGDTYDYWGQGTQVTVSS | 0.014 | 0.00074
VEGFBII22B06 (VHH, not shown: small tags and cut ends) VHH: EVQLVESGGGLVQPGDSLKLSCAASGRTFSSYSMGWFRQAQGKEREFVVAISSSGGYIYDSVSLEGRFTISRDNTKNTVYLQTPSLKPEDTAVYYCAASRAYGSSRLRLADTYDYWGQGTQVTVSS | 0.038 | 9e-05
VEGFBII22B07 (VHH, not shown: small tags and cut ends) VHH: EVQLVESGGGLVQAGDSLRLSCAASGRTFSSYSMGWFRQAQGKEREFVVAISSSGNYKYDSVSLEGRFTISRDNTKNTVYLQINSLKPEDTAVYYCAASRAYGSSRLRLGDTYDYWGQGTQVTVSS | 0.015 | 7.8e-05
VEGFBII23F05 (VHH, not shown: small tags and cut ends) VHH: EVQLVESGGGLVQAGDSLRLSCAASGRTFSSYSMGWFRQAQGKEREFVVAISSSGNYKYDSVSLEGRFTISRDNTKNTVYLQINSLKPKDTAVYYCAASRAYGSSRLRLGDTYDYWGQGTQVTVSS | 0.016 | 0.00013
VEGFBII30E07 (VHH, not shown: small tags and cut ends) VHH: EVQLVESGGGLVQAGDSLRLSCAASGRTFSSYSMGWFRQAQGKEREFVVAISSSGNYKYDSVSLEGRFTISRDNTKNTVYLQINSLKPEDTAVYYCAASRAYGSSRLRLGDTYDYWGQGTRVTVSS | 0.017 | 0.00013
VEGFBII23F11 (VHH, not shown: small tags and cut ends) VHH: EVQLVESGGGLVQPGDSLKLSCAFSGRTFSSYSMGWFRQAQGKEREFVVAISSGGGYIYDSVSLEGRFTISRDNTKNTVYLQTPSLKPEDTADYYCAASRAYGSSRLRLADTYDYWGQGTQVTVSS | 0.027 | 0.00013
VEGFBII31C07 (VHH, not shown: small tags and cut ends) VHH: EVQLVESGGGLVQTGDSLRLSCAASGGTFSSYSMGWFRQAQGKEREFVVAISSSGGYIYDSVSLEGRFTISRDNTKNTVYLQTPSLKPEDTADYYCAASRAYGSSRLRLADTYDYWGQGTQVTVSS | 0.037 | 0.00015
VEGFBII23A09 (VHH, not shown: small tags and cut ends) VHH: EVQLVESGGGLVQPGDSLKLSCAFSGRTFGSYSMGWFRQAQGKEREFVVAISSSGGYIYDSVSLEGRFTISRDNSKNTVYLQTPSLKPEDTAVYYCAASRAYGSSRLRLPDTYDYWGQGTQVTVSS | 0.027 | 4.6e-05
